Reference: patent US20170145113A1 (Genentech, published 2017)

B1: combination mutant LC3.HC2 Fab (Fab, V domains shown)
VH: EVQLVQSGAEVKKPGASVKVSCKASGYTFRDSEMHWVRQAPGQGLEWIGGVDPETDGAAYNQKFKGRATITRDTSTSTAYLELSSLRSEDTAVYYCTRGYDYDYALDYWGQGTLVTVSS
VL: DIQMTQSPSSLSASVGDRVTITCRASSSVEFIHWYQQKPGKAPKPLISATSNLASGVPSRFSGSGSGTDFTLTISSLQPEDFATYYCQQWSSNPWTFGQGTKVEIK
notes: Fab
B2: combination mutant LC5.HC2 Fab (Fab, V domains shown)
VH: EVQLVQSGAEVKKPGASVKVSCKASGYTFRDSEMHWVRQAPGQGLEWIGGVDPETDGAAYNQKFKGRATITRDTSTSTAYLELSSLRSEDTAVYYCTRGYDYDYALDYWGQGTLVTVSS
VL: DIQMTQSPSSLSASVGDRVTITCRASSSVNFIHWYQQKPGKAPKPLISATSELASGVPSRFSGSGSGTDFTLTISSLQPEDFATYYCQQWSSNPWTFGQGTKVEIK
notes: Fab
B3: combination mutant LC5.HC3 Fab (Fab, V domains shown)
VH: EVQLVQSGAEVKKPGASVKVSCKASGYKFTDSEMHWVRQAPGQGLEWIGGVDPETDGAAYNQKFKGRATITRDTSTSTAYLELSSLRSEDTAVYYCTRGYDYDYALDYWGQGTLVTVSS
VL: DIQMTQSPSSLSASVGDRVTITCRASSSVNFIHWYQQKPGKAPKPLISATSELASGVPSRFSGSGSGTDFTLTISSLQPEDFATYYCQQWSSNPWTFGQGTKVEIK
notes: Fab
B4: combination mutant LC5.HC1 Fab (Fab, V domains shown)
VH: EVQLVQSGAEVKKPGASVKVSCKASGYTFKDSEMHWVRQAPGQGLEWIGGVDPETDGAAYNQKFKGRATITRDTSTSTAYLELSSLRSEDTAVYYCTRGYDYDYALDYWGQGTLVTVSS
VL: DIQMTQSPSSLSASVGDRVTITCRASSSVNFIHWYQQKPGKAPKPLISATSELASGVPSRFSGSGSGTDFTLTISSLQPEDFATYYCQQWSSNPWTFGQGTKVEIK
notes: Fab
B5: combination mutant LC5.HC5 Fab (Fab, V domains shown)
VH: EVQLVQSGAEVKKPGASVKVSCKASGYTFTDSELHWVRQAPGQGLEWIGGVDPETDGAAYNQKFKGRATITRDTSTSTAYLELSSLRSEDTAVYYCTRGYDYDYALDYWGQGTLVTVSS
VL: DIQMTQSPSSLSASVGDRVTITCRASSSVNFIHWYQQKPGKAPKPLISATSELASGVPSRFSGSGSGTDFTLTISSLQPEDFATYYCQQWSSNPWTFGQGTKVEIK
notes: Fab
B6: combination mutant LC4.HC1 Fab (Fab, V domains shown)
VH: EVQLVQSGAEVKKPGASVKVSCKASGYTFKDSEMHWVRQAPGQGLEWIGGVDPETDGAAYNQKFKGRATITRDTSTSTAYLELSSLRSEDTAVYYCTRGYDYDYALDYWGQGTLVTVSS
VL: DIQMTQSPSSLSASVGDRVTITCRASSSVNFIHWYQQKPGKAPKPLISATSHLASGVPSRFSGSGSGTDFTLTISSLQPEDFATYYCQQWSSNPWTFGQGTKVEIK
notes: Fab
B7: combination mutant LC4.HC2 Fab (Fab, V domains shown)
VH: EVQLVQSGAEVKKPGASVKVSCKASGYTFRDSEMHWVRQAPGQGLEWIGGVDPETDGAAYNQKFKGRATITRDTSTSTAYLELSSLRSEDTAVYYCTRGYDYDYALDYWGQGTLVTVSS
VL: DIQMTQSPSSLSASVGDRVTITCRASSSVNFIHWYQQKPGKAPKPLISATSHLASGVPSRFSGSGSGTDFTLTISSLQPEDFATYYCQQWSSNPWTFGQGTKVEIK
notes: Fab
B8: combination mutant LC4.HC3 Fab (Fab, V domains shown)
VH: EVQLVQSGAEVKKPGASVKVSCKASGYKFTDSEMHWVRQAPGQGLEWIGGVDPETDGAAYNQKFKGRATITRDTSTSTAYLELSSLRSEDTAVYYCTRGYDYDYALDYWGQGTLVTVSS
VL: DIQMTQSPSSLSASVGDRVTITCRASSSVNFIHWYQQKPGKAPKPLISATSHLASGVPSRFSGSGSGTDFTLTISSLQPEDFATYYCQQWSSNPWTFGQGTKVEIK
notes: Fab
B9: combination mutant LC3.HC3 Fab (Fab, V domains shown)
VH: EVQLVQSGAEVKKPGASVKVSCKASGYKFTDSEMHWVRQAPGQGLEWIGGVDPETDGAAYNQKFKGRATITRDTSTSTAYLELSSLRSEDTAVYYCTRGYDYDYALDYWGQGTLVTVSS
VL: DIQMTQSPSSLSASVGDRVTITCRASSSVEFIHWYQQKPGKAPKPLISATSNLASGVPSRFSGSGSGTDFTLTISSLQPEDFATYYCQQWSSNPWTFGQGTKVEIK
notes: Fab
B10: combination mutant LC7.HC3 Fab (Fab, V domains shown)
VH: EVQLVQSGAEVKKPGASVKVSCKASGYKFTDSEMHWVRQAPGQGLEWIGGVDPETDGAAYNQKFKGRATITRDTSTSTAYLELSSLRSEDTAVYYCTRGYDYDYALDYWGQGTLVTVSS
VL: DIQMTQSPSSLSASVGDRVTITCRASSSVNFIHWYQQKPGKAPKPLISATSNLASGVPSRFSGSGSGTDFTLTISSLQPEDFATYYCQQWYSNPWTFGQGTKVEIK
notes: Fab
B11: combination mutant LC7.HC1 Fab (Fab, V domains shown)
VH: EVQLVQSGAEVKKPGASVKVSCKASGYTFKDSEMHWVRQAPGQGLEWIGGVDPETDGAAYNQKFKGRATITRDTSTSTAYLELSSLRSEDTAVYYCTRGYDYDYALDYWGQGTLVTVSS
VL: DIQMTQSPSSLSASVGDRVTITCRASSSVNFIHWYQQKPGKAPKPLISATSNLASGVPSRFSGSGSGTDFTLTISSLQPEDFATYYCQQWYSNPWTFGQGTKVEIK
notes: Fab
B12: combination mutant LC7.HC5 Fab (Fab, V domains shown)
VH: EVQLVQSGAEVKKPGASVKVSCKASGYTFTDSELHWVRQAPGQGLEWIGGVDPETDGAAYNQKFKGRATITRDTSTSTAYLELSSLRSEDTAVYYCTRGYDYDYALDYWGQGTLVTVSS
VL: DIQMTQSPSSLSASVGDRVTITCRASSSVNFIHWYQQKPGKAPKPLISATSNLASGVPSRFSGSGSGTDFTLTISSLQPEDFATYYCQQWYSNPWTFGQGTKVEIK
notes: Fab
B13: combination mutant LC3.HC5 Fab (Fab, V domains shown)
VH: EVQLVQSGAEVKKPGASVKVSCKASGYTFTDSELHWVRQAPGQGLEWIGGVDPETDGAAYNQKFKGRATITRDTSTSTAYLELSSLRSEDTAVYYCTRGYDYDYALDYWGQGTLVTVSS
VL: DIQMTQSPSSLSASVGDRVTITCRASSSVEFIHWYQQKPGKAPKPLISATSNLASGVPSRFSGSGSGTDFTLTISSLQPEDFATYYCQQWSSNPWTFGQGTKVEIK
notes: Fab
B14: combination mutant LC4.HC5 Fab (Fab, V domains shown)
VH: EVQLVQSGAEVKKPGASVKVSCKASGYTFTDSELHWVRQAPGQGLEWIGGVDPETDGAAYNQKFKGRATITRDTSTSTAYLELSSLRSEDTAVYYCTRGYDYDYALDYWGQGTLVTVSS
VL: DIQMTQSPSSLSASVGDRVTITCRASSSVNFIHWYQQKPGKAPKPLISATSHLASGVPSRFSGSGSGTDFTLTISSLQPEDFATYYCQQWSSNPWTFGQGTKVEIK
notes: Fab
B15: combination mutant LC7.HC2 Fab (Fab, V domains shown)
VH: EVQLVQSGAEVKKPGASVKVSCKASGYTFRDSEMHWVRQAPGQGLEWIGGVDPETDGAAYNQKFKGRATITRDTSTSTAYLELSSLRSEDTAVYYCTRGYDYDYALDYWGQGTLVTVSS
VL: DIQMTQSPSSLSASVGDRVTITCRASSSVNFIHWYQQKPGKAPKPLISATSNLASGVPSRFSGSGSGTDFTLTISSLQPEDFATYYCQQWYSNPWTFGQGTKVEIK
notes: Fab
B16: h15H6.v2 variant LC10 (LC-F32V, LC-S92K) Fab (Fab, V domains shown)
VH: EVQLVQSGAEVKKPGASVKVSCKASGYTFTDSEMHWVRQAPGQGLEWIGGVDPETDGAAYNQKFKGRATITRDTSTSTAYLELSSLRSEDTAVYYCTRGYDYDYALDYWGQGTLVTVSS
VL: DIQMTQSPSSLSASVGDRVTITCRASSSVNVIHWYQQKPGKAPKPLISATSNLASGVPSRFSGSGSGTDFTLTISSLQPEDFATYYCQQWKSNPWTFGQGTKVEIK
notes: Fab-Flag tag fusion from 293T cells
B17: h15H6.v2 variant LC9 (LC-S93I) Fab (Fab, V domains shown)
VH: EVQLVQSGAEVKKPGASVKVSCKASGYTFTDSEMHWVRQAPGQGLEWIGGVDPETDGAAYNQKFKGRATITRDTSTSTAYLELSSLRSEDTAVYYCTRGYDYDYALDYWGQGTLVTVSS
VL: DIQMTQSPSSLSASVGDRVTITCRASSSVNFIHWYQQKPGKAPKPLISATSNLASGVPSRFSGSGSGTDFTLTISSLQPEDFATYYCQQWSINPWTFGQGTKVEIK
notes: as for B16
B18: h15H6.v2 variant LC8 (LC-S92K) Fab (Fab, V domains shown)
VH: EVQLVQSGAEVKKPGASVKVSCKASGYTFTDSEMHWVRQAPGQGLEWIGGVDPETDGAAYNQKFKGRATITRDTSTSTAYLELSSLRSEDTAVYYCTRGYDYDYALDYWGQGTLVTVSS
VL: DIQMTQSPSSLSASVGDRVTITCRASSSVNFIHWYQQKPGKAPKPLISATSNLASGVPSRFSGSGSGTDFTLTISSLQPEDFATYYCQQWKSNPWTFGQGTKVEIK
notes: as for B16

Each binder was assayed against T1, His-tagged human HtrA1 protease domain (human, UniProt Q92743 161-367) (assay: SPR (BIACORE T200), huHtrA1-PD-His captured by anti-His, Fab injected).
T1 construct: His-tagged protease domain; also called huHtrA1-PD-His; huHtrA1-PD
T1 sequence (Q92743 other isoform, or with tags, fused parts or gaps limits assumed): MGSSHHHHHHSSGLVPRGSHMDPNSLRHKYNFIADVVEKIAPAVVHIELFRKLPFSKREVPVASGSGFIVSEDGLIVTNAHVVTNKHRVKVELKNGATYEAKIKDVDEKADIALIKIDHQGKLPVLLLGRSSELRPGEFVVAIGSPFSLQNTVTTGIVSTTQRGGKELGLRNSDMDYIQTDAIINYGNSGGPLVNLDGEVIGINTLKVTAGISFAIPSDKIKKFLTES
Procedure: These combination mutants included both a variant light chain and a variant heavy chain. BIACORE™ kinetic analysis was performed (as described below in Section C) using the combination mutants.
(§1) To determine the binding affinity of selected Fab variants for HtrA1, SPR measurement with a BIACORE™ T200 instrument was performed. Briefly, a series S sensor chip CM5 was activated with 1-EDC and NHS reagents according to the supplier's instructions, and anti-His antibody was coupled to achieve 200-300 response units (RU), then following by blocking un-reacted groups with 1 M ethanolamine. For kinetics measurements, approximately 5 nM of huHtrA1-PD-His was first injected at 10 μl/min flow rate to capture approximately 100 RU at 2 different flow cells (FC), except for FC1 (which served as a reference). Next, 5-fold serial dilutions of Fab in HBS-P buffer (0.01M HEPES pH 7.4, 0.15M NaCl, 0.005% surfactant P20) from low (0.8 nM) to high (50 nM) were injected (flow rate: 30 μl/min). The binding responses on HtrA1 were corrected by subtracting of RU from a blank flow cell. The sensorgram was recorded and subject to reference and buffer subtraction before evaluating by BIACORE® T200 Evaluation Software (version 2.0). Association rates (kₒₙ) and dissociation rates (koff) were calculated using a simple one-to-one Langmuir binding model. The equilibrium dissociation constant (KD) was calculated as the ratio of koff/kₒₙ.

In order of falling Kd:
1. B7  7.98 nM
2. B8  2.18 nM
3. B14  1.4 nM
4. B4  1.1 nM
5. B3  1.08 nM
6. B5  0.877 nM
7. B6  0.852 nM
8. B11  0.772 nM
9. B12  0.745 nM
10. B2  0.719 nM
11. B10  0.335 nM
12. B1  0.302 nM
13. B13  0.176 nM
14. B15  0.0955 nM
15. B9  0.0616 nM

In order of falling koff:
1. B12  0.000303 s⁻¹
2. B14  0.000297 s⁻¹
3. B5  0.000296 s⁻¹
4. B11  0.000267 s⁻¹
5. B3  0.000251 s⁻¹
6. B8  0.00024 s⁻¹
7. B10  0.000237 s⁻¹
8. B4  0.00023 s⁻¹
9. B6  0.000228 s⁻¹
10. B7  0.000222 s⁻¹
11. B2  0.000211 s⁻¹
12. B15  0.000189 s⁻¹
13. B1  0.000109 s⁻¹
14. B13  0.000102 s⁻¹
15. B9  4.93e-05 s⁻¹

In order of rising kon:
1. B7  27800 M⁻¹ s⁻¹
2. B8  110000 M⁻¹ s⁻¹
3. B4  208000 M⁻¹ s⁻¹
4. B14  212000 M⁻¹ s⁻¹
5. B3  233000 M⁻¹ s⁻¹
6. B6  268000 M⁻¹ s⁻¹
7. B2  294000 M⁻¹ s⁻¹
8. B5  337000 M⁻¹ s⁻¹
9. B11  347000 M⁻¹ s⁻¹
10. B1  362000 M⁻¹ s⁻¹
11. B12  406000 M⁻¹ s⁻¹
12. B13  577000 M⁻¹ s⁻¹
13. B10  709000 M⁻¹ s⁻¹
14. B9  801000 M⁻¹ s⁻¹
15. B15  1.97e+06 M⁻¹ s⁻¹

Biological target: T1, His-tagged human HtrA1 protease domain
Test: as above
Remark: another data set of the same source
Procedure: as §1

In order of rising Kd:
1. B18  1.16 nM
2. B17  2.15 nM
3. B16  8.42 nM

In order of rising koff:
1. B18  0.000397 s⁻¹
2. B17  0.000404 s⁻¹
3. B16  0.00213 s⁻¹

In order of falling kon:
1. B18  343000 M⁻¹ s⁻¹
2. B16  253000 M⁻¹ s⁻¹
3. B17  188000 M⁻¹ s⁻¹
